Measurements taken from patent US20150033370.

Test system: TALEN-AAVS1 (goat AAVS1 TALEN pair; left and right monomers not described separately) (synthetic construct)
Assay: cell_activity
Settings: cleavage/targeting efficiency in transfected goat fibroblasts; 6 of 8 puromycin-resistant clones correctly targeted with donor; half-sites highlighted only in …

TCCGGCTGTCTCCCTACCAGGGACACGGCAGGGCGGTGGTCAGCTCTCCTGGA (double strand) [goat AAVS1 TALEN target]
activity: 2%
